Experimental data reported in publication doi:10.1101/292672.

Target: SARS-CoV S 2P ectodomain (SARS-CoV (Tor2 strain)) (UniProt P59594)
Experiment: cryo-EM structure

In the case of “SARS-CoV S 2P ectodomain (from UniProt P59594 14-1190) (domain or fragment)”, the stoichiometry N is reported as 3.
